Results as given in US8617548B2 (priority 2006, dated 2013).
Like-named read-outs stand apart in the source and are kept apart here.

B1: ETI-204 (antibody, chains of the INN, looked up, V domains shown)
VH: QVQLQQSGPELKKPGASVKVSCKDSGYAFSSSWMNWVRQAPGQGLEWIGRIYPGDGDTNYNGKFQGRVTITADKSSSTAYMELSSLRSEDTAVYFCARSGLLRYAMDYWGQGTLVTVSS
VL: DIQMTQSPSSLSASVGDRVTITCRASQDIRNYLNWYQQKPGKAVKLLIYYTSRLLPGVPSRFSGSGSGTDYSLTISSQEQEDIGTYFCQQGNTLPWTFGQGTKVEIR

Experiments:
[1] = test system: B. anthracis; set-up: species or system New Zealand White (NZW) rabbits; settings: rabbit, in vivo
[2] = cynomolgus monkey, in vivo

| Molecule | Blood sample, B. anthracis positive culture, Study Day 34 (end of study) [1] | Blood sample, B. anthracis positive culture, moribund euthanized or found dead [1] | Tissue (spleen) sample, B. anthracis positive culture, Study Day 34 (end of study) [1] | Tissue (spleen) sample, B. anthracis positive culture, moribund euthanized or found dead [1] | Blood sample, B. anthracis positive culture, Study Day 34 (end of study) ([1]; iv) | Tissue (spleen) sample, B. anthracis positive culture, Study Day 34 (end of study) ([1]; iv) | bioavailability of IM anti-PA as compared to IV administration [2] | clearance (in words) [2] | volume of distribution at a steady-state (in words) [2] | AUC (0-inf) dose dependency (in words) ([2]; im, 10 mg/kg) |
| --- | --- | --- | --- | --- | --- | --- | --- | --- | --- | --- |
| C[C@H]1COc2c(N3CCN(C)CC3)c(F)cc3c(=O)c(C(=O)O)cn1c23 [Levofloxacin, levofloxacin, reference compound] | 0/4 | 8/8 | 0/4 | 7/8 | – | – | – | – | – | – |
| B1 | 0/4 | – | 0/4 | – | 0/4 | 0/4 | 83% | lower clearance | small volume of distribution | linear by dose |
